Test results reported in article PMC10810272.

Columns and labels:
[1] = target: Candidatus Methanomethylophilus alvus pyrrolysyl-tRNA synthetase (MaPylRS) (Candidatus Methanomethylophilus alvus) (UniProt M9SC49); test: dynamic light scattering; Nano-S Zetasizer, five measurements; sample at 16 μM (0.5 mg/ml); dimer assigned from HullRad predictions on the crystal structure
[2] = target: Candidatus Methanomethylophilus alvus pyrrolysyl-tRNA synthetase (MaPylRS) (Candidatus Methanomethylophilus alvus) (UniProt M9SC49); test: AUC; sedimentation velocity, 20°C, 30 000 rpm; 50 mM MES pH 5.2, 500 mM NaCl, 10 mM MgCl2; multiple concentrations (0.3, 0.6 and 1.2 mg/ml)

stoichiometry N [1]: 2
stoichiometry N [2]: 2
Substance: Candidatus Methanomethylophilus alvus pyrrolysyl-tRNA synthetase (MaPylRS) (from UniProt M9SC49 1-275) (enzyme)
